Experimental data from US20220332804A1 (CSL INNOVATION, published 2022).
Positions count from the first letter of the chain named.

Assays:
Assay in all cases: SPR; KD relative to WT C2;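 further: biacore SPR at 37 °C, anti-C2 mAbs captured on an anti-human IgG chip, alanine or serine C2 surface mutants tested, KD from 1:1 fit compared with wild-type C2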
human C2 R493A = biological target: T1, human C2 R493A (human, UniProt P06681 21-752)
T1 sequence: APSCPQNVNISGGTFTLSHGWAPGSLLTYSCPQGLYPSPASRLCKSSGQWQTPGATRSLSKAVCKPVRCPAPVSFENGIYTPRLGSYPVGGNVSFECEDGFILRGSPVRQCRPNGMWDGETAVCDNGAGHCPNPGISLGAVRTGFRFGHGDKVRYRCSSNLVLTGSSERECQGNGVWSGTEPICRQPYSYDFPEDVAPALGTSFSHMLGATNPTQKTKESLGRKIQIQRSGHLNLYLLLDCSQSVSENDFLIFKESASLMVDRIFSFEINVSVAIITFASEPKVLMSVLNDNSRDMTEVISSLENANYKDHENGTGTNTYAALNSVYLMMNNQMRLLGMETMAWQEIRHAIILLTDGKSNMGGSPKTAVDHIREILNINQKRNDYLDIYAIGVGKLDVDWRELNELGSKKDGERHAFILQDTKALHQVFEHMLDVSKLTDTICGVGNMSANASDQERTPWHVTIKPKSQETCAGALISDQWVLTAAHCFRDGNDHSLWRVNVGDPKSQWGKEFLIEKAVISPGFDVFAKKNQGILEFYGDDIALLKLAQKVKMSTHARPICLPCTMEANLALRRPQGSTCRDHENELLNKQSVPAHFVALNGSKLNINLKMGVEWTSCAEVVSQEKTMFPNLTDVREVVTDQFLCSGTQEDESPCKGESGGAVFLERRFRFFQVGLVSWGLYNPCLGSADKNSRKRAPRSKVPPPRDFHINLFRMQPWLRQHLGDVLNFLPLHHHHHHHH

human C2 A470S = biological target: T2, human C2 A470S (human, UniProt P06681 21-752)
T2 sequence: T1 sequence with A450S, A473R

human C2 K430A = biological target: T3, human C2 K430A (human, UniProt P06681 21-752)
T3 sequence: T1 sequence with K410A, A473R

human C2 V418A = biological target: T4, human C2 V418A (human, UniProt P06681 21-752)
T4 sequence: T1 sequence with V398A, A473R

B1: RF16-214 (antibody, V domains shown)
VH: EVQLLESGGGLVQPGGSLRLSCAASGFTFSWYQMMWVRQAPGKGLEWVSRIYPSGGGTAYADSVKGRFTISRDNSKNTLYLQMNSLRAEDTAVYYCARDAGYGDNWGQGTLVTVSS
VL: QSALTQPPSVSVSPGQTASITCSGDKLGEKYASWYQQKAGQSPVMVIYQDRKRPSGIPERFSGSNSGNTATLTISGTQAMDEADYYCQAWDTRAVVFGGGTKLTVLG
Human C2 R493A
  Fold diff: 1 fold
Human C2 A470S
  Fold diff: 1 fold
Human C2 K430A
  Fold diff: 10 fold
Human C2 V418A
  Fold diff: 1 fold
